Assay results taken from paper PMC13219714, “μ₃-Oxo nucleophile formation enables efficient SN2 hydrolysis at the trinuclear metal center in inorganic pyrophosphatase” (Communications Chemistry, 2026).

T1: ShPPase (Family II inorganic pyrophosphatase from Shewanella sp. AS-11) (Shewanella sp. AS-11, UniProt L8AXY8)
T1 construct: gene ppia; recombinant from pET16b in E. coli BL21(DE3); purified as previously described
T1 sequence (L8AXY8 2-308): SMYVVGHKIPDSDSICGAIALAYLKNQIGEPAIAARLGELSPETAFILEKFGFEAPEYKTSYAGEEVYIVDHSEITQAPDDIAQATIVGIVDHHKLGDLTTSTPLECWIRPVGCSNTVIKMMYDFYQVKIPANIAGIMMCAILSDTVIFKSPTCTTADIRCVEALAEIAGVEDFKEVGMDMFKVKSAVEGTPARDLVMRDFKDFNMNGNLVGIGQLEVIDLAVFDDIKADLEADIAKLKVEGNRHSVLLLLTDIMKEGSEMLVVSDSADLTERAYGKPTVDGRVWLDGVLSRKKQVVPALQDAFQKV

B1: ShPPase (Family II inorganic pyrophosphatase from Shewanella sp. AS-11) (Shewanella sp. AS-11) (protein)
chain: SMYVVGHKIPDSDSICGAIALAYLKNQIGEPAIAARLGELSPETAFILEKFGFEAPEYKTSYAGEEVYIVDHSEITQAPDDIAQATIVGIVDHHKLGDLTTSTPLECWIRPVGCSNTVIKMMYDFYQVKIPANIAGIMMCAILSDTVIFKSPTCTTADIRCVEALAEIAGVEDFKEVGMDMFKVKSAVEGTPARDLVMRDFKDFNMNGNLVGIGQLEVIDLAVFDDIKADLEADIAKLKVEGNRHSVLLLLTDIMKEGSEMLVVSDSADLTERAYGKPTVDGRVWLDGVLSRKKQVVPALQDAFQKV
notes: recombinant from pET16b in E. coli BL21(DE3); purified as previously described
B2: ShPPase (Family II inorganic pyrophosphatase from Shewanella sp. AS-11) (Shewanella sp. AS-11; D14N) (protein)
chain: SMYVVGHKIPDSNSICGAIALAYLKNQIGEPAIAARLGELSPETAFILEKFGFEAPEYKTSYAGEEVYIVDHSEITQAPDDIAQATIVGIVDHHKLGDLTTSTPLECWIRPVGCSNTVIKMMYDFYQVKIPANIAGIMMCAILSDTVIFKSPTCTTADIRCVEALAEIAGVEDFKEVGMDMFKVKSAVEGTPARDLVMRDFKDFNMNGNLVGIGQLEVIDLAVFDDIKADLEADIAKLKVEGNRHSVLLLLTDIMKEGSEMLVVSDSADLTERAYGKPTVDGRVWLDGVLSRKKQVVPALQDAFQKV
notes: as for B1
B3: ShPPase (Family II inorganic pyrophosphatase from Shewanella sp. AS-11) (Shewanella sp. AS-11; D14A) (protein)
chain: SMYVVGHKIPDSASICGAIALAYLKNQIGEPAIAARLGELSPETAFILEKFGFEAPEYKTSYAGEEVYIVDHSEITQAPDDIAQATIVGIVDHHKLGDLTTSTPLECWIRPVGCSNTVIKMMYDFYQVKIPANIAGIMMCAILSDTVIFKSPTCTTADIRCVEALAEIAGVEDFKEVGMDMFKVKSAVEGTPARDLVMRDFKDFNMNGNLVGIGQLEVIDLAVFDDIKADLEADIAKLKVEGNRHSVLLLLTDIMKEGSEMLVVSDSADLTERAYGKPTVDGRVWLDGVLSRKKQVVPALQDAFQKV
notes: as for B1

What was measured:
[1] = molecular target: T1, ShPPase (Family II inorganic pyrophosphatase from Shewanella sp. AS-11); assay: Zn K-edge XANES / EXAFS; format: binding; conditions: Zn2+-ShPPase 1.1 mM, 0.1 M PNP, 0.1 M MgCl2, pH 7.5; active site, trinuclear metal center
[2] = substrate: O=P(O)(O)OP(=O)(O)O; assay: molybdenum blue phosphate release; format: biochemical, Shewanella sp. AS-11; conditions: Zn2+-activated enzyme, 5 mM MgCl2, 50 mM KCl, 100 mM Tris-HCl pH 7.5, 25 °C
Excerpt: molybdenum blue phosphate release on ShPPase (Family II inorganic pyrophosphatase from Shewanella sp. AS-11)

[3] = primers for D14N and D14A appear exchanged

Row | Molecule | Zn K-edge XANES / EXAFS [1] | Km [2] [µM] | kcat [2] [s⁻¹] | kcat/Km [2] [M⁻¹ s⁻¹] | Km [2, 3] [µM] | kcat [2, 3] [s⁻¹] | kcat/Km [2, 3] [M⁻¹ s⁻¹]
1 | O=P(O)(O)NP(=O)(O)O [PNP, imidodiphosphate] | Zn²⁺ ions are predominantly five-coordinate in the substrate-free form, but transition to six-coordinate upon PNP binding |  |  |  |  |  | 
2 | B1 |  | 79 ± 18 | 99.8 ± 5.5 | 1.26e+06 |  |  | 
3 | B2 |  |  |  |  | 100 ± 20 | 0.034 ± 0.002 | 340
4 | B3 |  | 179 ± 37 | 0.019 ± 0.001 | 110 |  |  | 
